Assay results from paper PMC12546588 (Nature Communications, 2025).
Blank lines part the entries; values can stand above or below the binder they belong to.

How the values were obtained:
[1] = target: the molecule itself; experiment: cryo-EM structure
[2] = target: human TRPC3 channel (hTRPC3), WT full length, tetramer in nanodiscs (human, UniProt Q13507); experiment: cryo-EM structure

B1: human TRPC3 channel (hTRPC3), WT full length, tetramer in nanodiscs (natural protein, UniProt Q13507 86-921, looked up)
chain: MREKGRRQAVRGPAFMFNDRGTSLTAEEERFLDAAEYGNIPVVRKMLEESKTLNVNCVDYMGQNALQLAVGNEHLEVTELLLKKENLARIGDALLLAISKGYVRIVEAILNHPGFAASKRLTLSPCEQELQDDDFYAYDEDGTRFSPDITPIILAAHCQKYEVVHMLLMKGARIERPHDYFCKCGDCMEKQRHDSFSHSRSRINAYKGLASPAYLSLSSEDPVLTALELSNELAKLANIEKEFKNDYRKLSMQCKDFVVGVLDLCRDSEEVEAILNGDLESAEPLEVHRHKASLSRVKLAIKYEVKKFVAHPNCQQQLLTIWYENLSGLREQTIAIKCLVVLVVALGLPFLAIGYWIAPCSRLGKILRSPFMKFVAHAASFIIFLGLLVFNASDRFEGITTLPNITVTDYPKQIFRVKTTQFTWTEMLIMVWVLGMMWSECKELWLEGPREYILQLWNVLDFGMLSIFIAAFTARFLAFLQATKAQQYVDSYVQESDLSEVTLPPEIQYFTYARDKWLPSDPQIISEGLYAIAVVLSFSRIAYILPANESFGPLQISLGRTVKDIFKFMVLFIMVFFAFMIGMFILYSYYLGAKVNAAFTTVEESFKTLFWSIFGLSEVTSVVLKYDHKFIENIGYVLYGIYNVTMVVVLLNMLIAMINSSYQEIEDDSDVEWKFARSKLWLSYFDDGKTLPPPFSLVPSPKSFVYFIMRIVNFPKCRRRRLQKDIEMGMGNSKSRLNLFTQSNSRVFESHSFNSILNQPTRYQQIMKRLIKRYVLKAQVDKENDEVNEGELKEIKQDISSLRYELLEDKSQATEELAILIHKLSEKLNPSMLRCE
stoichiometry N [1]: 4 subunits

stoichiometry N [2]: 2 nanobody molecules per hTRPC3 tetramer
B2: Nanobody 3-37 (VHH)
VHH: QVQLQESGGGSVQSGGSLRLSCAASGYTYSRSCLGWFRQAPGKERERVATIDSDGSTSYADSVKGRFTISQDNAKNTLYLQMNSLKSEDTAMYYCASKYGSRCQNSLGYMYRGQGTQVTVSS

stoichiometry N [2]: 4 nanobody molecules per hTRPC3 tetramer
B3: Nanobody 1-25 (VHH)
VHH: QVQLQESGGGSVQSGGSLRLSCAASGDKNYYMGWFRQAPGKEREGVAAIKSDGETRYADSSVTGRFTISQDNAKKTLYLQMTSLKPEDTAMYYCAADRYIGTRWKYVRPEDYSYWGQGTQVTVSS

stoichiometry N [2]: 4 nanobody molecules per hTRPC3 tetramer
B4: Nanobody 1-94 (VHH)
VHH: QVQLQESGGGSVQSGGSLRLSCAASGYTYSYSGYCMGWFRQAPGKEREGVATIDGAGNTKYADSVKGRFTISRDNAKKTLYLQMNSLKPEDTAMYYCAARVYSYSSDVDCRPSFTTRFPYSGQGTQVTV
